Experimental data taken from patent US20220323495A1.

What was measured:
[1] = target: recombinant human EGFRvIII protein, denatured (human) (UniProt P00533); test: ELISA on coated denatured recombinant antigen; Exp 1
[2] = target: recombinant human wild-type EGFR protein, denatured (human) (UniProt P00533); test: as above
[3] = target: recombinant human EGFRvIII protein, denatured (human) (UniProt P00533); test: ELISA on coated denatured recombinant antigen; Exp 2, mAb 1 µg/ml
[4] = target: recombinant human EGFRvIII protein, native (human) (UniProt P00533); test: ELISA on coated native recombinant antigen; Exp 2, mAb 1 µg/ml
[5] = target: recombinant human wild-type EGFR protein, native (human) (UniProt P00533); test: as above
[6] = target: recombinant human EGFRvIII protein, native (human) (UniProt P00533); test: ELISA on coated native recombinant antigen; Exp 1
[7] = target: recombinant human wild-type EGFR protein, native (human) (UniProt P00533); test: ELISA on coated native recombinant antigen; Exp 1
[8] = target: recombinant human wild-type EGFR protein, denatured (human) (UniProt P00533); test: ELISA on coated denatured recombinant antigen; Exp 2, mAb 1 µg/ml

With 225 monoclonal antibody (ATCC HB-8508) the ELISA absorbance (405 nm) [1] was 0.001 A405, the ELISA absorbance (405 nm) [2] was -0.01 A405 and the ELISA absorbance (405 nm) [3] was 0.004 A405. It also gave an ELISA absorbance (405 nm) [4] of 1.5 A405, an ELISA absorbance (405 nm) [5] of 1.32 A405 and an ELISA absorbance (405 nm) [6] of 1.08 A405. It also gave an ELISA absorbance (405 nm) [7] of 1.2 A405.

Neg ctrl mouse mAb (antibody) showed an ELISA absorbance (405 nm) [8] of 0 A405 and an ELISA absorbance (405 nm) [4] of -0.001 A405.
